Reference: PMC9681084, “MYB44-ENAP1/2 restricts HDT4 to regulate drought tolerance in Arabidopsis” (PLOS Genetics, 2022)

B1: His-HDT4 (enzyme, Arabidopsis, UniProt Q9M4T3 1-203, looked up)
chain: MEFWGIEIKPGKPFKVIQKDGFMVHASQVTLGDVEKVKKDETFAVYVKIGDDENGFMIGNLSQKFPQFSIDLYLGHEFEISHNSTSSVYLIGYRTFDAFDELDEEIDSDSELDEYMEQQIAALPQNEINPEEDDESDSDEMGLDEDDDSSDEEDVEAEAPLKVAPPSKKMPNGAFEIAKGGKKNKSSGGKKRCPFPCGPSCKK
notes: HDT4, histone deacetylase of the HD2 family, Arabidopsis; the CDS ligated to pET28a; source: E. coli, purified (Ni-NTA agarose resin)
B2: MBP-ENAP1 (natural protein, Arabidopsis, UniProt Q8VZI9 1-249, looked up)
chain: METTPETQSKTHRLPAGREDWWSEDATATLIEAWGDRYVNLNRGNLRQNDWKEVADAVNSSHGNGRPKTDVQCKNRIDTLKKKYKTEKAKPLSNWCFFDRLDFLIGPVMKKSSGAVVKSALMNPNLNPTGSKSTGSSLDDDDDDDDDDEEDDDDAGDWGFVVRKHRKVEDVDSSEGSAFRELARSILKLGEAFERIEGKKQQMMIELEKQRMEVAKELELQRMNMLMEMQLELEKSKLGKRRAASGKKL
notes: ENAP1, Arabidopsis, AT3G11100; the CDS ligated to pVP13 (His tag removed); source: E. coli, purified (Amylose resin)

Target: T1, GST-MYB44 (Arabidopsis, UniProt Q9FDW1 1-305)
T1 construct: MYB44, Arabidopsis; the CDS ligated to pGEX-KG; source: E. coli, purified (Glutathione Sepharose resin)
T1 sequence (Q9FDW1 whole entry): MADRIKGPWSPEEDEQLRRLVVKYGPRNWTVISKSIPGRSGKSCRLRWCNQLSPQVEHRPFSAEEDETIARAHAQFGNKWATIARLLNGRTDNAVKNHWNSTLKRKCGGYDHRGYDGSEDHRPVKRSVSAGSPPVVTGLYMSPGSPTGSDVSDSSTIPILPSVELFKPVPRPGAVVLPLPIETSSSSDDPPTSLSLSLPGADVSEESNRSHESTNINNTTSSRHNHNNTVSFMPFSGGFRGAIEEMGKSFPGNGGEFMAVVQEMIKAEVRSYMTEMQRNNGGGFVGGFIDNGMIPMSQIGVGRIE
Experiment: pull-down; GST-MYB44 as bait, GST as control; purified proteins from E. coli incubated overnight at 4°C, washed four times, western blot
Conditions: both partners purified

Binder	binding result
B1	binds
B2	binds
